Laboratory results taken from patent US20240166738A1 (Alector, published 2024).
Changes are numbered by the printed parent chain.

B1: TM-10 (antibody, V domains shown)
VH: QVQLQQSGAELVKPGASVKISCKGSGYAFSSYWMNWVKQRPGKGLEWIGQIYPGDGDTNYNGKFKGKATLTADKSSTTAYIHLSSLTSEDSAVYFCARWGHYDEAMDDWGQGTSVTVSS
VL: DVVMTQTPLSLPVSLGDQASISCRSSQSLVHSNGKTYLHWYVQKPGQSPKLLIYKISNRFSGVPDRFSGSGSGTDFTLKISRVEAEDLGVYFCSQITHVPWTFGGGTKLESK
B2: TM-25 (antibody, V domains shown)
VH: EVQLVESGGDLVKPGGSLRLSCAASGFTFSGYGMSWIRQTPDKRLEWVATISSGGRYTVYPDSVKGRFTMSRDNVKNTLYLQMSSLKSEDTALYYCARDNFYSYAMDYWGLGTSVTVSA
VL: DIVMTQAAFSNPVTLGTSASISCRSSKSLLHSNGITYLFWYLQKPGQSPQLLIYQMSNLASGVPDRFSSSGSGTDFTLRISRVEAEDVGVYYCAQNLELWTFGGGTKLEIK
B3: TM-72 (antibody, V domains shown)
VH: QVQLQQPGAELVKPGTSVKLSCKASGSTFTNYWMHWVMQRPGQGLEWIGNIDPSDSDTHYNQKFKDRAKLTVDKSSSTAYMQLSGLTSEDSAVYYCARSRGGYYDYGEAMDYWGQGTSVTVSS
VL: DIVMTQAAPSVPVTPGESVSISCRSSKSLLHTNGNTYLFWFIQRPGQSPHLLIYRKSNLASGVPDRFSGSGSGTAFTLRISRVEAEDVGVYYCMQHLEYPFTFGSGTKLEIK
B4: TM-78 (antibody, V domains shown)
VH: QVQLQQPGAELVKPGASVKLSCKASGYTFTNHWMHWVRQRPGQGLEWIGNIDPSDSDTHYNHKFKDKATLIVDKSSSTAYLQLSSLTSEDSAVFYCARSRGGYYDYGEAMDYWGQGTSVTVSS
VL: B3 VL with A8T, V11I, T32V, I42L, H50Q, K56M
B5: TM-64 (antibody, V domains shown)
VH: QVQLQQPGAELVKPGASVKLSCKASGYTFTSYWMHWVKQRPGHGLEWIGNIDPSDSDTHYNQNFRGKATLTVDKFSTTAYMHLSSLTSEDSAVYYCARSRGGTYDYGEAMDYWGQGTSVTVSS
VL: B3 VL with I42L, Q47R, H50Q, K56M
B6: TM-11 (antibody, V domains shown)
VH: QVQLKQSGPGQVQPSQSLSITCTVSGFSLSDYGVHWVRQSPGKGLEWLGVIWNNGNTDYNAAFISRLSINKDNSKSQVFFKMTSLQADDTAIYYCVRSLRPLHFDYWGQGTTVTVSS
VL: DIVMTQSPSSLTMSVGQKVTMHCKSSQSLLNSNNLQNYLAWYQQKPGQSPTLLVYFASIRESGVPDRFIGSGSGTDFTLTISSVQAEDLADYFCQQHYNTPFTFGSGTKLEIR
B7: TM-24 (antibody, V domains shown)
VH: B6 VH
VL: B6 VL with H22N, L35Q, T51K, S82N, N99S
B8: TM-35 (antibody, V domains shown)
VH: QVQLQQSGPELVRPGTSVKISCKAPGYTFTRHWMQWVRQRPGQGLEWIGEILPGSNNIYYNEKVKGKATLTVDTSSSTSYMQLSSLTSEDSAVYFCARSLYDYDGVFAYWGQGTLVTVSA
VL: DVLMTQIPLSLPVSLGDQASISCRSSQSIVHRNGNTYLEWYLQKPGQSPKLLIYKVSNRFSGVPDRFSGSGSGTDFTLKISRVEAEDLGVYYCFQGSHVPYTFGGGTKLEIK
B9: TM-30 (antibody, V domains shown)
VH: QVQLQQSGPELVKPGASVKLSCKASDNTFTNYDVNWVRQRPGQGLEWIGWIYPRDGTTIYNEKFKGRATLTVDTSSSTAYMELHSLTSEDSAVFFCARTLPQAMDYWGQGTSVTVSS
VL: B8 VL with I7S, A19V, S28T, V99L, Y101W
B10: TM-32 (antibody, V domains shown)
VH: EVQLQQSGAELVRPGASVRLSCIASGFNIKDYYMYWVKQRPEQGLEWIGRIDPEDGDTEYVPKFQGKATMTADTSSNTAYLQLSSLTSEDIGVYYCTTRTWDLYYAVDNWGQGTSVTVSS
VL: B8 VL with I7T, S28N, R32S, Y54D, V90I, Y101F, G105S
B11: TM-60 (antibody, V domains shown)
VH: QVQLQQSGPELVKPGASVKLSCKASGYTFTSYDINWVKQRPGQGLEWIGWIYPRDGNTQYIEKLKGKATLTVDTSSSTAYMELHSLTSEDSAVYFCARWIFYAMDYWGQGTSVTVSS
VL: B8 VL with I7T, R32G, V99L
B12: TM-48 (antibody, V domains shown)
VH: B11 VH
VL: B8 VL with I7T, D17N, R32G, V99L
B13: TM-21 (antibody, V domains shown)
VH: EVQLVESGGGLVKPGGSLKLSCAASGFTFSNYAMSWVRETPEKRLEWVAFISDGGGYIYYADNVKDRFTISRDNAKNNLYLQMRHLKSEDTAMYYCARDGGTGFTYWGQGTLVTVSV
VL: DIVMTQAAFSNPVTLGTSASISCRSSKSLLHSNGITYLFWYLQKPGQSPQLLIYQMSNLASGVPDRFSSSGSGTDFTLRISRVEAEDVGVYYCVQNLELPYTFGGGTKLEIK
B14: TM-29 (antibody, V domains shown)
VH: QVQLRQSGAELVRPGASVKLSCKASGYTFTDYYINWVKQRPGQGLEWIARIYPGSGYTYYNEKFKGKATLTAEGSSNTAYMQLSSLTSEDSAVYFCANHYTNPFAYWGQGTLVTVSA
VL: B13 VL with S32Y, F39Y, V94A
B15: TM-61 (antibody, V domains shown)
VH: QVQLQQSGAELAKPGASVKLSCKASGYTFTNYWMNWVKQRPGQGLEWIGYINPSSDYTKYNQNFKDKATLTADKSSSTAYMQLNSLTYEDSAVYYCTRWGGSRSYWYFDVWGAGTTVTVSS
VL: DIVMTQSPSSLSASAGEKVTMSCKSSQSLLNSGNQKNYLAWYQQKPGQSPKLLIYGASTRESGVPDRFTGSGSGTDFTLTISSVQAEDLAVYYCQNDSNYPFTFGGGTKLEMK
B16: TM-28 (antibody, V domains shown)
VH: EVQLQQSGPVLVKPGPSVKISCMASVFTFNDYYIHWVKQSHGKSLEWIGLVYPYNGGTNYNQNFKGKATLTVDTSSRTAYMELNSLTSEDSAVYYCARSYFSNPIGYWGQGTLVTVSE
VL: B15 VL with A13V, A15V, M21V, S49P, S98H, N99S, F102L, G106A, M112L
B17: TM-45 (antibody, V domains shown)
VH: B15 VH with N35H, Q39K, D56G, N63K, S77N, N84S, W99E, R103I, Y105D, A113T
VL: B3 VL with V11L, T32S, F39Y, I42L, H50Q, K56M, F101Y, S105G
B18: TM-86 (antibody, V domains shown)
VH: EVQLQQSGPVLVKPGASVKMSCKASGYTFTDYYIHWVKQSHGRSLEWIGVISPYNDNTNYNQKFKGKATLTVDKSSSTAYMELNSLTSEDSAVYYCVRTYYSNYFDYWGQGTTLTVSS
VL: B15 VL with A13V, Y42H, K45R, S49P, D76E, S98H, N99S, F102L, G106A, M112L
B19: TM-37 (antibody, V domains shown)
VH: QVQLQQSGAELAKPGASVKLSCKASGYTFTSYWMHWVKQRPGQGLEWIGYVNPSSGYTKNNQKFKDKVTLTADKSSSTAYMQLSSLTYEDSAVYYCAREGGSISDWYFDVWGTGTTVTVSS
VL: B3 VL with T32S, L38S, F39Y, I42L, H50Q, K56M, F101Y, S105G
B20: TM-59 (antibody, V domains shown)
VH: B19 VH with T30I, V68A
VL: B3 VL with T32S, L38S, F39Y, I42L, H50Q, K56M, F101Y, S105G
B21: TM-13 (antibody, V domains shown)
VH: QVQLQQSGAELVKPGASVKMSCKASGYTFTTFPIEWMKQSHGKGLEWIGNFHPYNDDTKYNEKFKGKATLTVDKSSSTVYLDLSRLTSDDSAVYYCARYFYGGMDYWGQGTSVTVSS
VL: DIQMTQSPASLSVSVGETVTITCRASENIYSSLGWYQQKQGESPQLLVFAATNLADGVPSRFSGSGSGTQYSLKINSLQSEDFGTYYCQHLWSIPWTFGGGTRLEIK
B22: TM-84 (antibody, V domains shown)
VH: B21 VH with S40N, G44S, D73E, D82E
VL: B21 VL with Q37H, E42K, I94V, R103K
B23: TM-76 (antibody, V domains shown)
VH: QVTLKESGPGILQPSQTLSLTCSFSGFSLSTSGMGVSWIRKPSGKGLEWLAHIFWDDDKRYNLFLKSRLTVSKDTSSNQVFLMITSVDTTDTATYYCARMGRQRDYFDYWGQGTSLTVSS
VL: QIILTQSPAIMSASLGEEITLTCSASLSISYVHWYQQKSGASPKLLIYGTSNLASGVPSRFSGSGSGTFYSLTISSVEAEDAADYYCHQWSIYRTFGGGTKLEMK
B24: TM-63 (antibody, V domains shown)
VH: QVQLQQPGAELVKFGASVKLSCKASGYTFTSFWMHWVKQRPGQGLEWIGNIDPSDSETHYSQKFKDKATLTVDRSSNTAYIQLSSLTSEDSAVYYCARSSNWDNFDYWGQGTTVTVSS
VL: DIVMTQASPSVSVTPGESVSISCRSSQSLLHVNGNTYLYWFLQRPGRSPRLLIYRMSNLASGVPDRFSGSGSGTAFTLRISRVEAEDVGVYYCMQHLQYPFSFGSGTKLEMK
B25: TM-88 (antibody, V domains shown)
VH: EAQLQQSGPVLVKPGASVKMSCKTSGYTFTDYYINWVKQSHGKSLEWIGVINPYSGATYYTQKFKGKATLTVDKSSSTAYMELNSQTSEDSAVYYCARGGYDYGHWYFDVWGTGTTVTVSS
VL: ETTVTQSPASLSMAIGEKVTIRCITSSDIDDHMNWYRQKPGEPPEFLISEGNALRPGVPSRFSSSGYGTDFIFTIENILSEDVADYYCLQSDNLPLTFGAGTKLELK

Molecular target: human TMEM106B (human, UniProt Q9NUM4 2-274)
Test: cell-based or functional assay
Also: test concentration or dose not given here.

Binder	% Protection from CPE
B1	93.3%
B2	106%
B3	92.7%
B4	91.1%
B5	89.3%
B6	93.9%
B7	8.4%
B8	90.4%
B9	104%
B10	105%
B11	94.2%
B12	89.3%
B13	93.7%
B14	92.6%
B15	94.1%
B16	85.4%
B17	32.6%
B18	90.5%
B19	90.2%
B20	92.3%
B21	81.8%
B22	53.1%
B23	89.2%
B24	89.3%
B25	78.5%
